One assay addresses T1, P-0689 (IL-2 Fc fusion) (Homo sapiens (Human), UniProt P0DOX5 223-448 = IgG part).
T1 construct: Monovalent IL-2 S125I Fc fusion; also called IL-2 S125I monovalent Fc fusion protein; monovalent wild-type IL-2 Fc fusion protein
Kind of assay: ELISA, IL-2RαSushi Fc fusion coated, P-0689 titrated, biotin anti-IL2 antibody and Avidin-HRP. The procedure: IL-2Rα variants were designed to reduce binding to IL-2 by incorporating mutations at residues interacting IL-2 so that the D3 moiety would readily diffuse away upon in vivo proteolysis. Three exemplary IL-2RαSushi variants (SEQ ID NOS: 267-269) were expressed as monovalent Fc fusion proteins corresponding to P-0751 (Y43A), P-0752 (L42G), and P-0753 (R36A), respectively. The three IL-2RαSushi variant Fc fusions were assessed for the impacts of individual mutations on binding to IL-2 in ELISA in comparison to their wild-type IL-2RαSushi counterpart fusion referred to as P-0757.
Briefly, IL-2RαSushi variant monovalent Fc fusion proteins was coated onto the wells of Nunc Maxisorp 96-well microplates at 1 μg/well. […] Following a one-hour incubation at room temperature, 100 μl/well of biotin anti-IL2 antibody clone B33-2 (BD biosciences) at 1 μg/ml were added to each well and incubated at room temperature for 1 hour. Subsequently, 100 μl/well of Avidin-HRP (BioLegend) at 1:500 dilution was added to each well and incubated for 30 min. Finally, 100 μl TMB substrate was added to each well; the plate was developed at room temperature, and 100 μl/well of stop solution was added. Absorbance was determined at 450 nm and curves were fit using Prism software (GraphPad).

The target in assay [1] is P-0153 (IL-15/IL-15RαSushi+ Fc fusion protein). The experiment in a line: ELISA, P-0153 coated, biotinylated peptide titrated, Streptavidin-HRP. The protocol: The five peptides, L01 to L05 (SEQ ID NO: 97-101) in Table 19 were synthesized and assessed for their binding to IL-15 in ELISA format. […] Streptavidin-HRP complex at the manufacturer's recommended concentration was added and signal was developed by TMB substrate.
Background: In an ELISA, binding on a coated surface is turned into a signal by an enzyme label.

Bridge positions count the residues as written; N and C are the ends. Ends that are not written are not given here.

Usually EC50 stands for the concentration that produces a half-maximal response. A higher EC50 goes with a need for much substance.

P-0153 (IL-15/IL-15RαSushi+ Fc fusion protein), sequence (chain, as listed by the source, chain 1 of 2): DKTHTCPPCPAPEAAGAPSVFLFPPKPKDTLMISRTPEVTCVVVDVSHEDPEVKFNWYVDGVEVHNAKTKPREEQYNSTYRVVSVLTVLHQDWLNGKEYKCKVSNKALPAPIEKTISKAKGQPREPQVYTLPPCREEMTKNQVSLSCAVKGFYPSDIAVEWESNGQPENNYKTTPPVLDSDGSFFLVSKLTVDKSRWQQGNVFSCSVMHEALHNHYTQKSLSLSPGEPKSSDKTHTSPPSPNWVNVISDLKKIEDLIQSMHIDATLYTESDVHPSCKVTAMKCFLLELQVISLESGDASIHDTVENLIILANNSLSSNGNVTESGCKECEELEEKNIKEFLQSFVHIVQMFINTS
P-0153 (IL-15/IL-15RαSushi+ Fc fusion protein), sequence (chain, as listed by the source, chain 2 of 2): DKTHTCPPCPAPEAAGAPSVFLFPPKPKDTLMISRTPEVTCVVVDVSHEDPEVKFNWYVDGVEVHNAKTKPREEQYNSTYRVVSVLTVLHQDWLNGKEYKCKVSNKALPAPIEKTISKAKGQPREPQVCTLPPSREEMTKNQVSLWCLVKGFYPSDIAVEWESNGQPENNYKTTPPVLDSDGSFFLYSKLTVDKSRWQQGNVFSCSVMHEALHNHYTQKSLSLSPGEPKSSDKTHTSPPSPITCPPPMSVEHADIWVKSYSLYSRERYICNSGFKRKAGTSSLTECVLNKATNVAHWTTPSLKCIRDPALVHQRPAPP

B1: P-0757 (wild-type IL-2RαSushi monovalent Fc fusion) (Fc fusion)
chain: ELCDDDPPEIPHATFKAMAYKEGTMLNCECKRGFRRIKSGSLYMLCTGNSSHSSWDNQCQCTSSATRNTTKQVTPQPEEQKERKTTEMQSPMQPVDQASLPGHCREPPPWENEATERIYHFVVGQMVYYQCVQGYRALHRGPAESVCKMTHGKTRWTQPQLICTG
notes: also called w/t IL-2Rα; not shown: Fc chain fused to the Sushi domain, its linker and orientation, and the partner Fc chain of the monovalent heterodimer
For the molecule B1, in the assay with P-0689 (IL-2 Fc fusion), a half-maximal effect (EC50) was put at 0.26 nM and the “EC50 Fold change vs w/t IL-2Rα” value is 1 fold.

B2: P-0751 (IL-2RαSushi Y43A monovalent Fc fusion) (Fc fusion)
chain: ELCDDDPPEIPHATFKAMAYKEGTMLNCECKRGFRRIKSGSLAMLCTGNSSHSSWDNQCQCTSSATRNTTKQVTPQPEEQKERKTTEMQSPMQPVDQASLPGHCREPPPWENEATERIYHFVVGQMVYYQCVQGYRALHRGPAESVCKMTHGKTRWTQPQLICTG
notes: also called IL-2Rα Y43A; not shown: Fc chain fused to the Sushi variant, its linker and orientation, and the partner Fc chain of the monovalent heterodimer
With B2, in the assay with P-0689 (IL-2 Fc fusion), a half-maximal effect (EC50) was put at 2.1 nM and the “EC50 Fold change vs w/t IL-2Rα” value turned out to be 8.1 fold.

B3: P-0752 (IL-2RαSushi L42G monovalent Fc fusion) (Fc fusion)
chain: ELCDDDPPEIPHATFKAMAYKEGTMLNCECKRGFRRIKSGSGYMLCTGNSSHSSWDNQCQCTSSATRNTTKQVTPQPEEQKERKTTEMQSPMQPVDQASLPGHCREPPPWENEATERIYHFVVGQMVYYQCVQGYRALHRGPAESVCKMTHGKTRWTQPQLICTG
notes: also called IL-2Rα L42G; not shown: Fc chain fused to the Sushi variant, its linker and orientation, and the partner Fc chain of the monovalent heterodimer
Regarding B3, in the assay with P-0689 (IL-2 Fc fusion), the EC50 amounted to 9.2 nM and the “EC50 Fold change vs w/t IL-2Rα” value was 35 fold.

B4: P-0753 (IL-2RαSushi R36A monovalent Fc fusion) (Fc fusion)
chain: ELCDDDPPEIPHATFKAMAYKEGTMLNCECKRGFRAIKSGSLYMLCTGNSSHSSWDNQCQCTSSATRNTTKQVTPQPEEQKERKTTEMQSPMQPVDQASLPGHCREPPPWENEATERIYHFVVGQMVYYQCVQGYRALHRGPAESVCKMTHGKTRWTQPQLICTG
notes: also called IL-2Rα R36A; not shown: Fc chain fused to the Sushi variant, its linker and orientation, and the partner Fc chain of the monovalent heterodimer
Regarding B4, in the assay with P-0689 (IL-2 Fc fusion), it took 90 nM to reach a half-maximal effect (EC50) and the “EC50 Fold change vs w/t IL-2Rα” value came out at 346 fold.

B5: L03 (IL-2Rβ-based blocking peptide) (peptide)
peptide: CEISQASHYFERHLC
modifications: bridge 1-15 (inferred); also: biotinylated, site not given here, cyclized, bridge kind not given here
notes: also called cyclized loop 2
Consider B5, for which, in assay [1], the binding result is listed as “binds”.

The record behind these values is patent US20230093155A1 (CUGENE, published 2023).
